Measured values taken from patent US20080254465, “Assays for measuring nucleic acid binding proteins and enzyme activities” (BioVeris Corporation, published 2008).

What was measured:
NF-kB p50 subunit [1] = biological target: T1, NF-kB p50 subunit (UniProt P19838 P19838:1-433); test: footprint; DNase I protection, similar results to phosphorothioate substrate; settings: tags: recombinant, Promega; chain copies: 2 inferred
Description: (§1) The labeled DNA substrate (50 fmol), poly dI-dC (1 ug, to reduce non-specific protein-DNA interactions) and varying amounts of recombinant NFkβ (p50 subunit) were combined in a 20 uL volume and incubated for 30 min. at room temperature. Dnase 1 (2 Units in a volume of 2 uL, Promega Corp.) was then added and the incubation was continued for an additional 30 min. at room temperature. The reaction was terminated and the biotin-labeled DNA sequences captured by in the addition of 10 µg of streptavidin Dynabeads (IGEN, International) in 0.3 ml PBS-1 containing 0.2 M EDTA, followed by incubation for 15 minutes. The reaction mixture was introduced into an ORIGEN Analyzer (IGEN International) running in Magnetic Capture Mode and the ECL signal from RuBpy on the magnetic beads was determined in the presence of a solution containing tripropylamine (ORIGEN Assay Buffer, IGEN International). A control was also run in the absence of Dnase to determine the ECL signal obtained from the uncleaved substrate. […] The addition of NFkβ gave a dose dependent increase in signal relative to that obtained from unprotected DNA, the magnitude of which approached, for high concentrations of NFkβ, the signal obtained in the absence of DNAse. The experiment was repeated with an DNA substrate with the same nucleotide sequence but containing only phosphodiester linkages and similar results were obtained.

AP-2 = AP-2 (UniProt P05549 P05549:1-437); test: footprint; ECL 32289 vs 54041 unprotected; no DNase protection; settings: chain copies: 2
Chain of AP-2 (P05549 whole entry, one chain of several): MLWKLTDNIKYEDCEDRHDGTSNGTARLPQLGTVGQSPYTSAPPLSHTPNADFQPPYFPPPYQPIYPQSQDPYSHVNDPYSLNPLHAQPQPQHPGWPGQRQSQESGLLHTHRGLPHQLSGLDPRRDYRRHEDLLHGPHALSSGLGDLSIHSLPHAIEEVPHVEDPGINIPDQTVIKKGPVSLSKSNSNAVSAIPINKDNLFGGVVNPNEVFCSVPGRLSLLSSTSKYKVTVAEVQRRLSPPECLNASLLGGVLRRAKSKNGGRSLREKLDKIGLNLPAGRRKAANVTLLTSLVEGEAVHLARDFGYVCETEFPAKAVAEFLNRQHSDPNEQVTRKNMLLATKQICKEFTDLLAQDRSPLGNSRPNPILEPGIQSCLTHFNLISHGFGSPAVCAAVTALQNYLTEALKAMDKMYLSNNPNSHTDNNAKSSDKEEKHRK
Description: (§2) The labeled DNA substrate (50 fmol), poly dI-dC (1 ug, to reduce non-specific protein-DNA interactions) and varying amounts of recombinant NFkβ (p50 subunit) were combined in a 20 uL volume and incubated for 30 min. at room temperature. Dnase 1 (2 Units in a volume of 2 uL, Promega Corp.) was then added and the incubation was continued for an additional 30 min. at room temperature. The reaction was terminated and the biotin-labeled DNA sequences captured by in the addition of 10 µg of streptavidin Dynabeads (IGEN, International) in 0.3 ml PBS-1 containing 0.2 M EDTA, followed by incubation for 15 minutes. The reaction mixture was introduced into an ORIGEN Analyzer (IGEN International) running in Magnetic Capture Mode and the ECL signal from RuBpy on the magnetic beads was determined in the presence of a solution containing tripropylamine (ORIGEN Assay Buffer, IGEN International). A control was also run in the absence of Dnase to determine the ECL signal obtained from the uncleaved substrate. […]
(§3) The specificity of the assay was determined by replacing the specific binding protein NFkβ with other DNA binding proteins specific for sequences not present on the DNA substrate (the phosphorothioate containing substrate was used).

NF-kB p50 subunit [2] = biological target: T1, NF-kB p50 subunit; test: footprint; DNase I protection with ECL readout; dose dependent, signal 1729305 at 7 ng vs 96862 unprotected and 2591957 without DNase; poly dI-dC, room temperature; settings: tags: recombinant, Promega; chain copies: 2 inferred
Description: as §1

SP-1 = SP-1 (UniProt P08047 P08047:2-785); test: footprint; ECL 38880 vs 54041 unprotected; no DNase protection
Chain of SP-1 (P08047 2-785, one chain of several): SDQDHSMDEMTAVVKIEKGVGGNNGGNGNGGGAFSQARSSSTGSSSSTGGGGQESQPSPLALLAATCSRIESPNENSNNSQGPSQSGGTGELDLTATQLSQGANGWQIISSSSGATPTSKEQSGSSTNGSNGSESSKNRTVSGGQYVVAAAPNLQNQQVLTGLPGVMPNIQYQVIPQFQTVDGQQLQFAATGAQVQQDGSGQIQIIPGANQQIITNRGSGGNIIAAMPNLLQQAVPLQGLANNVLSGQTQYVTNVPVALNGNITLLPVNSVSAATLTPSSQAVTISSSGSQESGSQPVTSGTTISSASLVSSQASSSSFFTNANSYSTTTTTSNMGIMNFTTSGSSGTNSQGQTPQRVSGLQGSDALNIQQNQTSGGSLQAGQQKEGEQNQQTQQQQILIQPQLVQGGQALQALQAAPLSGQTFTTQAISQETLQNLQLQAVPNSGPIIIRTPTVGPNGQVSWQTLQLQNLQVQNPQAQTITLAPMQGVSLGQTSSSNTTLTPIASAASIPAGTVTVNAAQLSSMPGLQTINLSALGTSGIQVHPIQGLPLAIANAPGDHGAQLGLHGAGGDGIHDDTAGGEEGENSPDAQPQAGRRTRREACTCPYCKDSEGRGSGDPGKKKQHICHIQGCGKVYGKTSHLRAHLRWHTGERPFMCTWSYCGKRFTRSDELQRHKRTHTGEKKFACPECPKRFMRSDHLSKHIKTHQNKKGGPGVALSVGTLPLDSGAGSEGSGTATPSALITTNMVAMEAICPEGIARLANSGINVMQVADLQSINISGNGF
Description: as §2, §3

T1 sequence (P19838 1-433, one chain of several): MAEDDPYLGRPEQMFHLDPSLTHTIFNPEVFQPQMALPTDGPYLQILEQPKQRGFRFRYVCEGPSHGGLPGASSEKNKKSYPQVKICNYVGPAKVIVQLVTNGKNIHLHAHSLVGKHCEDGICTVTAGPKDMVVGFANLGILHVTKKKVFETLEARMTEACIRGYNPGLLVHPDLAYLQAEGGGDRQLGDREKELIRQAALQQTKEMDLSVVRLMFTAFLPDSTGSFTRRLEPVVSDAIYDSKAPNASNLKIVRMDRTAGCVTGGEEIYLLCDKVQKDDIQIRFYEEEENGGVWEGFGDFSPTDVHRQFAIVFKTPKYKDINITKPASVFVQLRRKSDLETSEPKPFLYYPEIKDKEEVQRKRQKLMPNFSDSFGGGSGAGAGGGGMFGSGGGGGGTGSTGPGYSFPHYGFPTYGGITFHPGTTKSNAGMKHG

B1: NF-kB consensus substrate, all phosphodiester (dsDNA)
DNA 1: AGTTGAGGGGACTTTCCCAGGC
DNA 2: GCCTGGGAAAGTCCCCTCAACT
binding result (NF-kB p50 subunit [1]): binds

B2: NF-kB consensus substrate, phosphorothioate (dsDNA)
DNA 1: AGTTGAGGGGACTTTCCCAGGC
DNA 2: GCCTGGGAAAGTCCCCTCAACT
modifications: PS within bracketed nucleotides AGTTGAGG (5') and CCCAGGC (3') of the labelled strand
binding result (AP-2): no binding | binding result (NF-kB p50 subunit [2]): binds | binding result (SP-1): no binding
